Results taken from paper PMC5009119, “Characterization of the Promoter Region of Biosynthetic Enzyme Genes Involved in Berberine Biosynthesis in Coptis japonica”.

Molecular target: GST-CjWRKY1 (Coptis japonica, UniProt A0ZT25 1-185)
Test: EMSA; poly(dI-dC) 0.05 ug/ul; 3 ug protein, 20 fmol probe; EMSA: 1x LightShift binding buffer, 1 mM MgCl2, 0.5 mM EDTA, 0.05 ug/ul poly(dI-dC), 20 min at 4 C; pH not stated
Details: protein: recombinant; tags: GST (N-terminal, pGEX-6P-1); label: biotin (sense and antisense oligonucleotides)

GST-CjWRKY1, sequence (A0ZT25 entry or part of it): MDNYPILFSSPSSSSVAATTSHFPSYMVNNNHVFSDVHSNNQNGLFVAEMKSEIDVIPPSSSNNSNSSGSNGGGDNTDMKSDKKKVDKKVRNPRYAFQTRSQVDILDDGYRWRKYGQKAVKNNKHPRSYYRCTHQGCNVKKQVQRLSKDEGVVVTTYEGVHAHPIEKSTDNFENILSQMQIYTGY

B1: 3x W-box probe (W2 of CYP80B2 promoter) (dsDNA)
DNA 1: CTGCTGACTAGCTGACTAGCTGACTAGATGG
DNA 2: CCATCTAGTCAGCTAGTCAGCTAGTCAGCAG
Does B1 bind?
Result: binds
